Laboratory results published in paper PMC13080021.
Read-outs that look alike come from different tables or passages of the source.

Key:
[1] = molecular target: eGFP-tagged measles virus C protein, full length (human measles virus) (UniProt P03424); assay: MST
[2] = molecular target: eGFP-tagged measles virus C protein, full length (human measles virus) (UniProt P03424); assay: MST; remark: listed apart in the source
[3] = molecular target: measles virus (MeV) phosphoprotein (P), optimized construct (human measles virus) (UniProt P03422); assay: cryo-EM structure

Substance | Kd [1] | Kd [2] | stoichiometry N [3]
measles virus (MeV) N protein, monomeric (N_ΔN-arm) (domain or fragment) | 4.57 µM | 3.92 µM | –
measles virus (MeV) phosphoprotein (P), optimized construct (from UniProt P03422 1-507) (natural protein) | – | – | 4
